Measurements from patent US20190071480A1 (Biogen, published 2019).
Blank lines part the entries; values can stand above or below the binder they belong to.

Tests used:
[1] = target: T1, extracellular domain of activin receptor type IIB (ActRIIBecd), biotinylated (Homo sapiens (Human), UniProt Q13705 27-117, amino-biotinylated with amine-PEG3-Biotin); test: BIAcore SPR as Example 5 (method not restated); SD ±1.60 nM
T1 construct: immobilised on a streptavidin-coated sensor chip; also called biotinylated ActRIIBecd; extracellular domain of ActRIIB
T1 sequence: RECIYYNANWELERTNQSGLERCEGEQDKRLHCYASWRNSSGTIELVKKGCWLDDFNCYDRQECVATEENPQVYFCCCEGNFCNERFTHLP
Procedure: (§1) Biosensor experiments. In one embodiment, experiments were performed on a BIAcore™ T100/T200 instrument (Pharmacia Biosensor AB) in the multichannel mode (serial flow path involving flow cells 1+2+3+4). Flow rate was 10 μl/min; temperature was 25° C.; and data were recorded at 2.5 points/s. All four segments of a sensor chip CMS were coated with streptavidin (Sigma) to a density of 2000 pg/mm² (2000 resonance units) by the aminocoupling procedure. ActRIIBecd (10 mg) and amine-PEG3-Biotin (10 mg, Pierce, Rockford, Ill.) were dissolved in 200 μl H₂O and 10 mg NaCNBH₃ was added to prepare biotinylated ActRIIBecd. The reaction mixture was heated at 70° C. for 24 h, after that a further 10 mg NaCNBH₃ was added and the reaction was heated at 70° C. for another 24 h. After cooling to room temperature, the mixture was desalted with the spin column (3,000 molecular weight cut off (MWCO)). […] Sensograms were recorded during flow of the analyte (the ActRIIBecd-associated polypeptides (i.e., domains) as previously described) first through flow cell 1 (control) then through flow cell 2 (biotinylated ActRIIBecd). […] The sensograms obtained at 1.11, 3.33, 10, 30, and 90 nM analyte were evaluated for equilibrium binding, association rate, and dissociation rate by using the programs supplied with the instrument (BIA evaluation 2.1; Software Handbook. 1995; Pharmacia Biosensor AB).

[2] = target: T1, extracellular domain of activin …; test: Mean KD column of Table 5; method not restated (BIAcore as Example 5); species also listed in Table 4
In short: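 SPR, 25° C, 10 μl/min. Streptavidin surface carrying biotin-ActRIIBecd (50-250 RU); analyte series 1.11-90 nM in pH 4.5 glycine buffer. Control cell subtracted; kinetics and equilibrium binding fitted.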

[3] = target: T1, extracellular domain of activin …; test: BIAcore SPR as Example 5 (method not restated); SD ±1.38 nM
Procedure: as §1

[4] = target: T1, extracellular domain of activin …; test: BIAcore SPR as Example 5 (method not restated); SD ±2.35 nM
Procedure: as §1

[5] = target: T1, extracellular domain of activin …; test: BIAcore SPR as Example 5 (method not restated); SD ±1.05 nM
Procedure: as §1

[6] = target: T1, extracellular domain of activin …; test: BIAcore SPR as Example 5 (method not restated); SD ±1.39 nM
Procedure: as §1

[7] = target: T1, extracellular domain of activin …; test: BIAcore SPR as Example 5 (method not restated); SD ±0.67 nM
Procedure: as §1

[8] = target: T1, extracellular domain of activin …; test: BIAcore SPR as Example 5 (method not restated); SD ±1.30 nM
Procedure: as §1

[9] = target: T1, extracellular domain of activin …; test: BIAcore SPR as Example 5 (method not restated); SD ±3.57 nM
Procedure: as §1

[10] = target: T1, extracellular domain of activin …; test: BIAcore SPR as Example 5 (method not restated); SD ±2.66 nM
Procedure: as §1

[11] = target: T1, extracellular domain of activin …; test: BIAcore SPR as Example 5 (method not restated); SD ±1.13 nM
Procedure: as §1

[12] = target: T1, extracellular domain of activin …; test: BIAcore SPR as Example 5 (method not restated); SD ±1.76 nM
Procedure: as §1

[13] = target: T1, extracellular domain of activin …; test: BIAcore SPR, biotinylated ActRIIBecd on chip; SD ±18.12 nM
Procedure: as §1

[14] = target: T1, extracellular domain of activin …; test: BIAcore SPR as Example 5 (method not restated); SD ±1.32 nM
Procedure: as §1

[15] = target: T1, extracellular domain of activin …; test: BIAcore SPR as Example 5 (method not restated); SD ±2.08 nM
Procedure: as §1

[16] = target: T1, extracellular domain of activin …; test: BIAcore SPR as Example 5 (method not restated); SD ±2.71 nM
Procedure: as §1

[17] = target: T1, extracellular domain of activin …; test: BIAcore SPR as Example 5 (method not restated); SD ±0.75 nM
Procedure: as §1

- Kd [1]: 5.71 nM
- Kd [2]: 5.71 nM
B1: SEQ ID NO: 276, cysteine pairs C67-C71^a, C8-C41^a, C9-C43^a, C109-C109^b (designed binder)
chain: NSKIPKACCVPTELSAISMLYLDENEKVVLKNYQDMVVEGCGCRVDFSDVGWNDWIVAPPGYHAFYCHGECPFPLADHLNSTNHAIVQTLVNSVAQAKHKQRKRLKSSCKRHPLY
modifications: disulfides C67-C71 (intra), C8-C41 (intra), C9-C43 (intra), C109-C109 (inter)
notes: homodimer by intermolecular disulfide

- Kd [3]: 6.31 nM
- Kd [2]: 6.31 nM
B2: SEQ ID NO: 276, cysteine pairs C67-C71^a, C8-C43^b, C9-C41^b, C109-C109^b (designed binder)
chain: NSKIPKACCVPTELSAISMLYLDENEKVVLKNYQDMVVEGCGCRVDFSDVGWNDWIVAPPGYHAFYCHGECPFPLADHLNSTNHAIVQTLVNSVAQAKHKQRKRLKSSCKRHPLY
modifications: disulfides C67-C71 (intra), C8-C43 (inter), C9-C41 (inter), C109-C109 (inter)
notes: as for B1

- Kd [4]: 27.9 nM
- Kd [2]: 27.9 nM
B3: SEQ ID NO: 276, cysteine pairs C8-C9^a (designed binder)
chain: NSKIPKACCVPTELSAISMLYLDENEKVVLKNYQDMVVEGCGCRVDFSDVGWNDWIVAPPGYHAFYCHGECPFPLADHLNSTNHAIVQTLVNSVAQAKHKQRKRLKSSCKRHPLY
modifications: disulfides C8-C9 (intra)

- Kd [5]: 7.66 nM
- Kd [2]: 7.66 nM
B4: SEQ ID NO: 276, cysteine pairs C67-C71^a, C8-C43^a, C9-C41^a, C109-C109^b (designed binder)
chain: NSKIPKACCVPTELSAISMLYLDENEKVVLKNYQDMVVEGCGCRVDFSDVGWNDWIVAPPGYHAFYCHGECPFPLADHLNSTNHAIVQTLVNSVAQAKHKQRKRLKSSCKRHPLY
modifications: disulfides C67-C71 (intra), C8-C43 (intra), C9-C41 (intra), C109-C109 (inter)
notes: as for B1

- Kd [6]: 5.14 nM
- Kd [2]: 5.14 nM
B5: SEQ ID NO: 300, cysteine pairs C23-C27^a, C65-C65^b, C79-C112^a, C80-C114^a (designed binder)
chain: VDFKDVGWNDHAVAPPGYHAFYCHGECPFPLADHLNSDNHAIVQTKVNSVGQAKRKGYKRLKSSCKRHPLYNSKDPKACCVPTELSAPSPLYLDENEKPVLKNYQDMVVHGCGCR
modifications: disulfides C23-C27 (intra), C65-C65 (inter), C79-C112 (intra), C80-C114 (intra)
notes: as for B1

- Kd [7]: 4.77 nM
- Kd [2]: 4.77 nM
B6: SEQ ID NO: 292, cysteine pairs C15-C80^a, C44-C112^a, C48-C114^a, C79-C79^b (designed binder)
chain: GQAKRKGYKRLKSSCKRHPLYVDFKDVGWNDHAVAPPGYHAFYCHGECPFPLADHLNSDNHAIVQTKVNSVNSKDPKACCVPTELSAPSPLYLDENEKPVLKNYQDMVVHGCGCR
modifications: disulfides C15-C80 (intra), C44-C112 (intra), C48-C114 (intra), C79-C79 (inter)
notes: as for B1

- Kd [8]: 5.54 nM
- Kd [2]: 5.54 nM
B7: SEQ ID NO: 292, cysteine pairs C80-C114^b, C79-C112^b, C44-C48^a (designed binder)
chain: GQAKRKGYKRLKSSCKRHPLYVDFKDVGWNDHAVAPPGYHAFYCHGECPFPLADHLNSDNHAIVQTKVNSVNSKDPKACCVPTELSAPSPLYLDENEKPVLKNYQDMVVHGCGCR
modifications: disulfides C80-C114 (inter), C79-C112 (inter), C44-C48 (intra)
notes: as for B1

- Kd [9]: 5.81 nM
- Kd [2]: 5.81 nM
B8: SEQ ID NO: 292, cysteine pairs C15-C15^b, C79-C114^a, C80-C112^a, C44-C48^a (designed binder)
chain: GQAKRKGYKRLKSSCKRHPLYVDFKDVGWNDHAVAPPGYHAFYCHGECPFPLADHLNSDNHAIVQTKVNSVNSKDPKACCVPTELSAPSPLYLDENEKPVLKNYQDMVVHGCGCR
modifications: disulfides C15-C15 (inter), C79-C114 (intra), C80-C112 (intra), C44-C48 (intra)
notes: as for B1

- Kd [10]: 29 nM
- Kd [2]: 29 nM
B9: SEQ ID NO: 292, cysteine pairs C79-C80^a (designed binder)
chain: GQAKRKGYKRLKSSCKRHPLYVDFKDVGWNDHAVAPPGYHAFYCHGECPFPLADHLNSDNHAIVQTKVNSVNSKDPKACCVPTELSAPSPLYLDENEKPVLKNYQDMVVHGCGCR
modifications: disulfides C79-C80 (intra)

- Kd [11]: 4.89 nM
- Kd [2]: 4.89 nM
B10: SEQ ID NO: 284, cysteine pairs C59-C59^b, C8-C41^a, C9-C43^a, C88-C92^a (designed binder)
chain: NSKIPKACCVPTELSAISMLYLDENEKVVLKNYQDMVVEGCGCRAQAKHKQRKRLKSSCKRHPLYVDFSDVGWNDWIVAPPGYHAFYCHGECPFPLADHLNSTNHAIVQTLVNSV
modifications: disulfides C59-C59 (inter), C8-C41 (intra), C9-C43 (intra), C88-C92 (intra)
notes: as for B1

- Kd [12]: 5.79 nM
- Kd [2]: 5.79 nM
B11: SEQ ID NO: 284, cysteine pairs C59-C59^b, C8-C41^b, C9-C43^b, C88-C92^a (designed binder)
chain: NSKIPKACCVPTELSAISMLYLDENEKVVLKNYQDMVVEGCGCRAQAKHKQRKRLKSSCKRHPLYVDFSDVGWNDWIVAPPGYHAFYCHGECPFPLADHLNSTNHAIVQTLVNSV
modifications: disulfides C59-C59 (inter), C8-C41 (inter), C9-C43 (inter), C88-C92 (intra)
notes: as for B1

- Kd [13]: 56 nM
Binder: VDFSDVGWNDWAVAPPGYHAFYCHGECPFPLADHLNSDNHAIVQTLVNSV [Clone No. 16 domain (ActRIIBecd-associated polypeptide)]

- Kd [2]: 7.21 nM
- Kd [14]: 7.21 nM
B12: SEQ ID NO: 268, cysteine pairs C23-C27^a, C65-C65^b, C79-C112^a, C80-C114^a (designed binder)
chain: VDFSDVGWNDWIVAPPGYHAFYCHGECPFPLADHLNSTNHAIVQTLVNSVAQAKHKQRKRLKSSCKRHPLYNSKIPKACCVPTELSAISMLYLDENEKVVLKNYQDMVVEGCGCR
modifications: disulfides C23-C27 (intra), C65-C65 (inter), C79-C112 (intra), C80-C114 (intra)
notes: as for B1

- Kd [15]: 8.74 nM
- Kd [2]: 8.74 nM
B13: SEQ ID NO: 268, cysteine pairs C23-C27^a, C65-C65^b, C79-C114^a, C80-C112^a (designed binder)
chain: VDFSDVGWNDWIVAPPGYHAFYCHGECPFPLADHLNSTNHAIVQTLVNSVAQAKHKQRKRLKSSCKRHPLYNSKIPKACCVPTELSAISMLYLDENEKVVLKNYQDMVVEGCGCR
modifications: disulfides C23-C27 (intra), C65-C65 (inter), C79-C114 (intra), C80-C112 (intra)
notes: as for B1

- Kd [16]: 29.6 nM
- Kd [2]: 29.6 nM
B14: SEQ ID NO: 268, cysteine pairs C23-C79^a (designed binder)
chain: VDFSDVGWNDWIVAPPGYHAFYCHGECPFPLADHLNSTNHAIVQTLVNSVAQAKHKQRKRLKSSCKRHPLYNSKIPKACCVPTELSAISMLYLDENEKVVLKNYQDMVVEGCGCR
modifications: disulfides C23-C79 (intra)

- Kd [17]: 7.96 nM
- Kd [2]: 7.96 nM
B15: SEQ ID NO: 268, cysteine pairs C23-C27^a, C65-C65^b, C79-C112^b, C80-C114^b (designed binder)
chain: VDFSDVGWNDWIVAPPGYHAFYCHGECPFPLADHLNSTNHAIVQTLVNSVAQAKHKQRKRLKSSCKRHPLYNSKIPKACCVPTELSAISMLYLDENEKVVLKNYQDMVVEGCGCR
modifications: disulfides C23-C27 (intra), C65-C65 (inter), C79-C112 (inter), C80-C114 (inter)
notes: as for B1
